Laboratory results reported in paper PMC4428439.

B1: RssB, full-length, untagged, overexpressed in lysate [E. coli] / His6-IraP [E. coli] (parent)
chain 1: MTQPLVGKQILIVEDEQVFRSLLDSWFSSLGATTVLAADGVDALELLGGFTPDLMICDIAMPRMNGLKLLEHIRNRGDQTPVLVISATENMADIAKALRLGVEDVLLKPVKDLNRLREMVFACLYPSMFNSRVEEEERLFRDWDAMVDNPAAAAKLLQELQPPVQQVISHCRVNYRQLVAADKPGLVLDIAALSENDLAFYCLDVTRAGHNGVLAALLLRALFNGLLQEQLAHQNQRLPELGALLKQVNHLLRQANLPGQFPLLVGYYHRELKNLILVSAGLNATLNTGEHQVQISNGVPLGTLGNAYLNQLSQRCDAWQCQIWGTGGRLRLMLSAE
chain 2: MKNLIAELLFKLAQKEEESKELCAQVEALEIIVTAMLRNMAQNDQQRLIDQVEGALYEVKPDASIPDDDTELLRDYVKKLLKHPRQ

Variants of: B1
Assay: pull-down
Settings: with His6-IraP [E. coli]; lysate of cells co-expressing RssB and His6-IraP applied to Ni-NTA beads; eluted with imidazole; n = 3; parent: 1; read off a plot

Row | Variant | ratio to parent
1 | chain 1 MTQPLVGKQILIVEDEQVFRSLLDSWFSSLGATTVLAADGVDALELLGGFTPDLMICPIAMPRMNGLKLLEHIRNRGDQTPVLVISATENMADIAKALRLGVEDVLLKPVKDLNRLREMVFACLYPSMFNSRVEEEERLFRDWDAMVDNPAAAAKLLQELQPPVQQVISHCRVNYRQLVAADKPGLVLDIAALSENDLAFYCLDVTRAGHNGVLAALLLRALFNGLLQEQLAHQNQRLPELGALLKQVNHLLRQANLPGQFPLLVGYYHRELKNLILVSAGLNATLNTGEHQVQISNGVPLGTLGNAYLNQLSQRCDAWQCQIWGTGGRLRLMLSAE [chain 1 D58P] | 0.36
2 | chain 1 MTQPLVGKQILIVEDEQVFRSLLDSWFSSLGATTVLAADGVDALELLGGFTPDLMICAIAMPRMNGLKLLEHIRNRGDQTPVLVISATENMADIAKALRLGVEDVLLKPVKDLNRLREMVFACLYPSMFNSRVEEEERLFRDWDAMVDNPAAAAKLLQELQPPVQQVISHCRVNYRQLVAADKPGLVLDIAALSENDLAFYCLDVTRAGHNGVLAALLLRALFNGLLQEQLAHQNQRLPELGALLKQVNHLLRQANLPGQFPLLVGYYHRELKNLILVSAGLNATLNTGEHQVQISNGVPLGTLGNAYLNQLSQRCDAWQCQIWGTGGRLRLMLSAE [chain 1 D58A] | 0.6
